Measurements taken from patent US20070270486.

Molecular target: T1, Myocilin tagged at its C-terminus with S-peptide, Q99972
T1 chain: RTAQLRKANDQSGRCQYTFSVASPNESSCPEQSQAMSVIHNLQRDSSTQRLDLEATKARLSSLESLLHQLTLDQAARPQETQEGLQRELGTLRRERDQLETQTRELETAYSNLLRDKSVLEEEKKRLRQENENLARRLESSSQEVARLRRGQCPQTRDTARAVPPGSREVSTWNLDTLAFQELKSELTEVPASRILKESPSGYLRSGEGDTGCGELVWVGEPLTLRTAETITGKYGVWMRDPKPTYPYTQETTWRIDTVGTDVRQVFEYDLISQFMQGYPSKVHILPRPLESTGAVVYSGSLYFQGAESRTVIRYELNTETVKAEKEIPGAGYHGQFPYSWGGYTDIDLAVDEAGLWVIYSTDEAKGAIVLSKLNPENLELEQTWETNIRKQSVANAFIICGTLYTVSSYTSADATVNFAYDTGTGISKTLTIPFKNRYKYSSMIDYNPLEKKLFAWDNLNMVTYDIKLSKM

B1: S-protein (protein)
chain: SSSNYCNQMMKSRNLTKDRCKPVNTFVHESLADVQAVCSQKNVACKNGQTNCYQSYSTMSITDCRETGSSKYPNCAYKTTQANKHIIVACEGNPYVPVHFDASV
  RNAase analysis of culture medium (enzymatic recombination assay): the assay can detect secreted myocilin in less than 1 µl of media
